# In US20090068637A1:
# What was measured:
# [1] = biological target: HA of H5N1 virus strain F2 (avian influenza virus H5N1); test: cell-based or functional assay
# [2] = biological target: HA of H5N1 virus strain G1 (avian influenza virus H5N1); test: cell-based or functional assay
# [3] = biological target: HA of H5N1 virus strain A8 (avian influenza virus H5N1); test: cell-based or functional assay
# [4] = biological target: HA of H5N1 virus strain C3 (avian influenza virus H5N1); test: cell-based or functional assay
# [5] = biological target: HA of H5N1 virus strain C2 (avian influenza virus H5N1); test: cell-based or functional assay
# [6] = biological target: HA of H5N1 virus strain B5 (avian influenza virus H5N1); test: cell-based or functional assay
# [7] = biological target: HA of H5N1 virus strain B2 (avian influenza virus H5N1); test: cell-based or functional assay
# [8] = biological target: HA of H5N1 virus strain E2 (avian influenza virus H5N1); test: cell-based or functional assay
# [9] = biological target: HA of H5N1 virus strain B8 (avian influenza virus H5N1); test: cell-based or functional assay
# [10] = biological target: HA of H5N1 virus strain A2 (avian influenza virus H5N1); test: cell-based or functional assay
# [11] = biological target: HA of H5N1 virus strain H1 (avian influenza virus H5N1); test: cell-based or functional assay
# [12] = biological target: HA of H5N1 virus strain A3 (avian influenza virus H5N1); test: cell-based or functional assay
# [13] = biological target: HA of H5N1 virus strain E1 (avian influenza virus H5N1); test: cell-based or functional assay
# [14] = biological target: HA of H5N1 virus strain B3 (avian influenza virus H5N1); test: cell-based or functional assay
# [15] = biological target: HA of H5N1 virus strain A1 (avian influenza virus H5N1); test: cell-based or functional assay
# [16] = biological target: HA of H5N1 virus strain A6 (avian influenza virus H5N1); test: cell-based or functional assay
# [17] = biological target: HA of H5N1 virus strain D1 (avian influenza virus H5N1); test: cell-based or functional assay
# [18] = biological target: HA of H5N1 virus strain B1 (avian influenza virus H5N1); test: cell-based or functional assay
# [19] = biological target: HA of H5N1 virus strain F3 (avian influenza virus H5N1); test: cell-based or functional assay
# [20] = biological target: HA of H5N1 virus strain D2 (avian influenza virus H5N1); test: cell-based or functional assay
# [21] = biological target: HA of H5N1 virus strain B4 (avian influenza virus H5N1); test: cell-based or functional assay
# [22] = biological target: HA of H5N1 virus strain B7 (avian influenza virus H5N1); test: cell-based or functional assay
# [23] = biological target: HA of H5N1 virus strain A7 (avian influenza virus H5N1); test: cell-based or functional assay
# [24] = biological target: HA of H5N1 virus strain H2 (avian influenza virus H5N1); test: cell-based or functional assay
# [25] = biological target: HA of H5N1 virus strain A5 (avian influenza virus H5N1); test: cell-based or functional assay
# [26] = biological target: HA of H5N1 virus strain B6 (avian influenza virus H5N1); test: cell-based or functional assay
# [27] = biological target: hemagglutinin of subtype H5 avian influenza virus (strain not stated) (avian influenza virus subtype H5)
# [28] = biological target: HA of virus strain BhGs/QH/15/05 (avian influenza virus); test: cell-based or functional assay
# [29] = biological target: HA of virus strain CK/IDN/2A/04 (avian influenza virus); test: cell-based or functional assay
# [30] = biological target: HA of virus strain Oriental Magpie Robin/HK/366/2006 (avian influenza virus); test: cell-based or functional assay
# [31] = biological target: HA of virus strain CK/HK/213/03 (avian influenza virus); test: cell-based or functional assay
# [32] = biological target: HA of virus strain CP Heron/HK/18/05 (avian influenza virus); test: cell-based or functional assay
# [33] = biological target: HA of virus strain DK/IDN/MS/04 (avian influenza virus); test: cell-based or functional assay
# [34] = biological target: HA of H5N1 virus strain A4 (avian influenza virus H5N1); test: cell-based or functional assay
# [35] = biological target: HA of H5N1 virus strain C1 (avian influenza virus H5N1); test: cell-based or functional assay
# [36] = biological target: H5 virus strains (thirty-four strains of H5N1 viruses); test: cell-based or functional assay
# [37] = biological target: non-H5 viruses (14 strains; H1~H13, Chicken NDV); test: cell-based or functional assay
binder,measurement,setting,value
4D1 single chain antibody (scFv) scFv: QVQLQQPGAELVKPGASVNLSCKASGYTFTSYWMHWVKQRPGQGLEWIGEIDPSDSFTTYNQNFKDRATLTVDKSSSTAYMQLRSLTSEDSAVYYCARGGPGDFRYAMDYWGQGTSVTVSSGGGGSDILMTQSPSSMSVSLGDTVSITCHASQGISSNIGWLQQKPGKSFKGLIYHGTNLEDGVPSRFSGSGSGADYSLTISSLESEDFADYYCVQYVQFPYTFGGGTKLEIKRA,HI titer (n) (n (dilution 2^n)),[1],5
same,HI titer (n) (n (dilution 2^n)),[2],3.5
same,HI titer (n) (n (dilution 2^n)),[3],> 8
same,HI titer (n) (n (dilution 2^n)),[4],> 8
same,HI titer (n) (n (dilution 2^n)),[5],> 8
same,HI titer (n) (n (dilution 2^n)),[6],0
same,HI titer (n) (n (dilution 2^n)),[7],0
same,HI titer (n) (n (dilution 2^n)),[8],1
same,HI titer (n) (n (dilution 2^n)),[9],> 8
same,HI titer (n) (n (dilution 2^n)),[10],> 8
same,HI titer (n) (n (dilution 2^n)),[11],6
same,HI titer (n) (n (dilution 2^n)),[12],> 8
same,HI titer (n) (n (dilution 2^n)),[13],1
same,HI titer (n) (n (dilution 2^n)),[14],> 8
same,HI titer (n) (n (dilution 2^n)),[15],> 8
same,HI titer (n) (n (dilution 2^n)),[16],7
same,HI titer (n) (n (dilution 2^n)),[17],> 8
same,HI titer (n) (n (dilution 2^n)),[18],> 8
same,HI titer (n) (n (dilution 2^n)),[19],3
same,HI titer (n) (n (dilution 2^n)),[20],7.5
same,HI titer (n) (n (dilution 2^n)),[21],> 8
same,HI titer (n) (n (dilution 2^n)),[22],> 8
same,HI titer (n) (n (dilution 2^n)),[23],6
same,HI titer (n) (n (dilution 2^n)),[24],4
same,HI titer (n) (n (dilution 2^n)),[25],> 8
same,HI titer (n) (n (dilution 2^n)),[26],> 8
8H5 single chain antibody (scFv) scFv: QVQLQQSGAELMKPGASVKISCKATGYTFSNYWIEWIKQRPGHGLEWIGEILPGSDRTNYNGKFKGKATFTADTSSNTAHMQLSSLTSEDSAVYYCANRYDGYYFGLDYWGQGTSVAVSSAGGGGSEIVLTQSPAIMSASLGEKVTMSCRASSSVNFVYWYQQRSDASPKLLIYYSSNLAPGVPPRFSGSGSGNSYSLTISGLEGEDAATYYCQHFTSSPYTFGGGTNLEIKR,average value of the testing wells (ELISA reading),[27],0.597
same,HI titer (n) (n (dilution 2^n)),[1],0
same,HI titer (n) (n (dilution 2^n)),[2],0
same,HI titer (n) (n (dilution 2^n)),[3],2.5
same,HI titer (n) (n (dilution 2^n)),[4],0
same,HI titer (n) (n (dilution 2^n)),[5],1
same,HI titer (n) (n (dilution 2^n)),[6],0
same,HI titer (n) (n (dilution 2^n)),[7],0
same,HI titer (n) (n (dilution 2^n)),[8],0
same,HI titer (n) (n (dilution 2^n)),[9],3
same,HI titer (n) (n (dilution 2^n)),[10],4.5
same,HI titer (n) (n (dilution 2^n)),[11],0
same,HI titer (n) (n (dilution 2^n)),[12],3.5
same,HI titer (n) (n (dilution 2^n)),[13],0
same,HI titer (n) (n (dilution 2^n)),[14],5
same,HI titer (n) (n (dilution 2^n)),[15],3.5
same,HI titer (n) (n (dilution 2^n)),[16],3
same,HI titer (n) (n (dilution 2^n)),[17],2.5
same,HI titer (n) (n (dilution 2^n)),[18],4
same,HI titer (n) (n (dilution 2^n)),[19],0
same,HI titer (n) (n (dilution 2^n)),[20],2
same,HI titer (n) (n (dilution 2^n)),[21],5
same,HI titer (n) (n (dilution 2^n)),[22],4
same,HI titer (n) (n (dilution 2^n)),[23],3
same,HI titer (n) (n (dilution 2^n)),[24],0
same,HI titer (n) (n (dilution 2^n)),[25],4
same,HI titer (n) (n (dilution 2^n)),[26],3.5
10F7 single chain antibody (scFv) scFv: QVQLQQPGAELVKPGASVKLSCKASGYTFTSYWMHWVKQRPGQGLEWIGEIDPSDSYTNYNQKFKGKATLTVDKSSSTAYMQLSSLTSEDSAVYYCARGGTGDFHYAMDYWGQGTSVTVSSGGGGSDILMTQSPSSMSVSLGDTVSITCHASQGISSNIGWLQQKPGKSFKGLIYHGTNLEDGVPSRFSGSGSGADYSLTISSLESEDFADYYCVQYVQFPYTFGGGTKLEIKR,HI titer (n) (n (dilution 2^n)),[1],0
same,HI titer (n) (n (dilution 2^n)),[2],0
same,HI titer (n) (n (dilution 2^n)),[3],6
same,neutralization test: dilution of 10F7 scFv (fold dilution),[28],16
same,HI titer (n) (n (dilution 2^n)),[4],1
same,HI titer (n) (n (dilution 2^n)),[5],2
same,HI titer (n) (n (dilution 2^n)),[6],0
same,HI titer (n) (n (dilution 2^n)),[7],0
same,HI titer (n) (n (dilution 2^n)),[8],0
same,HI titer (n) (n (dilution 2^n)),[9],7
same,HI titer (n) (n (dilution 2^n)),[10],> 8
same,neutralization test: dilution of 10F7 scFv (fold dilution),[29],32
same,HI titer (n) (n (dilution 2^n)),[11],< 1
same,neutralization test: dilution of 10F7 scFv (fold dilution),[30],< 1
same,HI titer (n) (n (dilution 2^n)),[12],> 8
same,HI titer (n) (n (dilution 2^n)),[13],0
same,HI titer (n) (n (dilution 2^n)),[14],> 8
same,neutralization test: dilution of 10F7 scFv (fold dilution),[31],< 1
same,HI titer (n) (n (dilution 2^n)),[15],> 8
same,HI titer (n) (n (dilution 2^n)),[16],7.5
same,HI titer (n) (n (dilution 2^n)),[17],2.5
same,HI titer (n) (n (dilution 2^n)),[18],7
same,neutralization test: dilution of 10F7 scFv (fold dilution),[32],8
same,HI titer (n) (n (dilution 2^n)),[19],0
same,HI titer (n) (n (dilution 2^n)),[20],2.5
same,HI titer (n) (n (dilution 2^n)),[21],> 8
same,HI titer (n) (n (dilution 2^n)),[22],7
same,HI titer (n) (n (dilution 2^n)),[23],6.5
same,HI titer (n) (n (dilution 2^n)),[24],0
same,neutralization test: dilution of 10F7 scFv (fold dilution),[33],16
same,HI titer (n) (n (dilution 2^n)),[25],> 8
same,HI titer (n) (n (dilution 2^n)),[26],7
"4D1 chimeric antibody (antibody, V domains shown) VH: QVQLQQPGAELVKPGASVNLSCKASGYTFTSYWMHWVKQRPGQGLEWIGEIDPSDSFTTYNQNFKDRATLTVDKSSSTAYMQLRSLTSEDSAVYYCARGGPGDFRYAMDYWGQGTSVTVSS VL: DILMTQSPSSMSVSLGDTVSITCHASQGISSNIGWLQQKPGKSFKGLIYHGTNLEDGVPSRFSGSGSGADYSLTISSLESEDFADYYCVQYVQFPYTFGGGTKLEIKR",HI test result,[1],1 n
same,HI test result,[2],1 n
same,HI test result,[3],5.5 n
same,HI test result,[4],4 n
same,HI test result,[5],6 n
same,HI test result,[8],7.5 n
same,HI test result,[9],4 n
same,HI test result,[10],5.5 n
same,HI test result,[34],6 n
same,HI test result,[11],1 n
same,HI test result,[12],5.5 n
same,HI test result,[13],5.5 n
same,HI test result,[15],5 n
same,HI test result,[35],7.5 n
same,HI test result,[16],4.5 n
same,HI test result,[17],5 n
same,HI test result,[18],> 8 n
same,HI test result,[19],1 n
same,HI test result,[21],5.5 n
same,HI test result,[22],7 n
same,HI test result,[23],4 n
same,HI test result,[24],1 n
same,HI test result,[26],6.5 n
"10F7 chimeric antibody (antibody, V domains shown) VH: QVQLQQPGAELVKPGASVKLSCKASGYTFTSYWMHWVKQRPGQGLEWIGEIDPSDSYTNYNQKFKGKATLTVDKSSSTAYMQLSSLTSEDSAVYYCARGGTGDFHYAMDYWGQGTSVTVSS VL: DILMTQSPSSMSVSLGDTVSITCHASQGISSNIGWLQQKPGKSFKGLIYHGTNLEDGVPSRFSGSGSGADYSLTISSLESEDFADYYCVQYVQFPYTFGGGTKLEIKR",HI test result,[1],2.5 n
same,HI test result,[2],6.5 n
same,HI test result,[3],5.5 n
same,HI test result,[4],2.5 n
same,HI test result,[5],6 n
same,HI test result,[8],> 8 n
same,HI test result,[9],4.5 n
same,HI test result,[10],7 n
same,HI test result,[34],7 n
same,HI test result,[11],5.5 n
same,HI test result,[12],6.5 n
same,HI test result,[13],6 n
same,HI test result,[15],6.5 n
same,HI test result,[35],> 8 n
same,HI test result,[16],5 n
same,HI test result,[17],2.5 n
same,HI test result,[18],> 8 n
same,HI test result,[19],> 8 n
same,HI test result,[21],6 n
same,HI test result,[22],7 n
same,HI test result,[23],5.5 n
same,HI test result,[24],8 n
same,HI test result,[26],6 n
"monoclonal antibody 2F2 (antibody, V domains shown) VH: QVQLKESGPGLVAPSQRLSITCTVSGFSLTGYGVHWIRQSPGKGLEWLGMIWAEGRTDYNSVLKSRLSINKDNSRSQVFLEMNSLQTDDTARYYCAREVITTEAWYFDVWGQGTSVTES VL: DIVMTQSPATLSVTPGDRVSLSCRASQSISDYLYWYQQKSHESPRLLIKYASQSISGIPSRFSGSGSGSDFTLTINSVEPEDVGMYYCQNGHTFPLTFGAGTKLEIKR",HI assay: positive number/total virus number (of 34 strains),[36],28
same,HI assay: positive number/total virus number (of 14 strains),[37],0
